# Data from publication PMC6017478, “Exploring Alternative Radiolabeling Strategies for Sialic Acid-Binding Immunoglobulin-Like Lectin 9 Peptide: [^68Ga]Ga- and [^18F]AlF-NOTA-Siglec-9” (Molecules : A Journal of Synthetic Chemistry and Natural …, 2018).
# Positions of bridges follow the written chain, without caps; N, C: chain ends. Residues, ends and D or L forms follow the SMILES beside them. Groups on a side chain read outwards from the residue. *: point of attachment. NOTA = O=C(O)CN1CCN(CC(=O)O)CCN(CC(=O)*)CC1; AEEA = NCCOCCOCC(=O)O
# Assays:
# [1] = rat, in vivo, iv
# Description: The rats were subcutaneously injected with 50 µL turpentine oil (Sigma-Aldrich) into the right shoulder area (foreleg) to induce skin/muscle inflammation, which was allowed to develop for 24 h prior to PET imaging. For imaging and ex vivo analysis, the rats were anesthetized using isoflurane and intravenously injected with 17.7 ± 3.4 MBq of one of the two radiotracers via the tail vein cannula. Immediately after injection a dynamic 60-min PET scan was performed on four rats for [^68Ga]Ga-NOTA-Siglec-9 and four rats for [^18F]AlF-NOTA-Siglec-9. The data were acquired in list-mode and iteratively reconstructed with a 3-D ordered subsets expectation maximization algorithm with 8 iterations, 16 subsets, and a 2-mm full-width at half-maximum post-filter into 6 × 10 s, 4 × 60 s, 5 × 300 s, and 3 × 600 s time frames. After imaging, the rats were euthanized, and various tissues, including inflamed skin/muscle (inflamed area) from the right foreleg, skin from the left foreleg (control area), and healthy muscle from the left hind leg, were excised, weighed, and measured with a γ-counter. The ex vivo radioactivity measurements were decay-corrected from the time of injection, and the results were expressed as SUV. Plasma protein binding was measured from plasma samples taken from 60 min post-injections. […] Radioactivity of both the precipitate and the supernatant was measured by γ-counting.
# [2] = format: physicochemical; conditions: pH 7.6
# Description: The distribution coefficient (Log D) was measured by adding 5 kBq of tracer into a mixture of PBS (pH 7.6) and 1-octanol (1:1, v/v). The solution was mixed thoroughly for 5 min at room temperature. After separation of phases by centrifugation (12,000× g, 6 min), 100 µL aliquots of each phase layer were taken for γ-counting to determine Log D. The test was repeated three times. Log D was calculated as Log D=log10 counts per minute in octanol/counts per minute in PBS .
structure (smiles),measurement,setting,value
CC(C)C[C@@H]1NC(=O)CNC(=O)[C@H](CCCNC(=N)N)NC(=O)[C@H](Cc2c[nH]c3ccccc23)NC(=O)[C@H](CO)NC(=O)[C@H](CC(C)C)NC(=O)[C@H](CO)NC(=O)[C@H](CC(C)C)NC(=O)[C@H](CCCNC(=N)N)NC(=O)[C@H](C)NC(=O)[C@@H](N)CSSC[C@@H](C(=O)N2CCC[C@H]2C(=O)N[C@@H](CO)C(=O)N[C@@H](CCCCNC(=O)COCCOCCNC(=O)CN2CCN(CC(=O)O)CCN(CC(=O)O)CC2)C(=O)O)NC(=O)[C@H](CC(C)C)NC(=O)[C@H]([C@@H](C)O)NC1=O [[^68Ga]Ga-NOTA-Siglec-9] [metal not drawn] (H-CARLSLSWRGLTLCPSK([AEEA-NOTA])-OH; disulfide 1-14),Plasma protein binding,[1],31.4 ± 3.4%
same,Log D,[2],−3.2 ± 0.3
